This note sets out measurements from publication PMC12712053.

Assay [1] deals with human Mre11 core (HsMre11c) (human). The experiment in a line: SEC. (Size exclusion chromatography separates by hydrodynamic size, large species first.)
For assay [2] the target is unchanged. The experiment in a line: native gel or EMSA. (Mobility shift assays separate free from complexed probe on a gel.)

Consider “human Mre11 core (HsMre11c) (domain or fragment)”, for which the stoichiometry N in assay [1] and in assay [2] was 2 each time.
